How the values were obtained:
[1] = molecular target: BcFLC (Brassica campestris (syn. Brassica …, UniProt A4L9R7 1-196)); experiment: EMSA; cold probe competition 10x, 100x, 250x; Chemiluminescent EMSA kit (Beyotime); buffer, salt, pH and temperature not stated; details: protein: recombinant; tags: GST (pGEX-4T-1); chain copies: 2; label: biotin (5' and 3' ends per Methods); blunt
[2] = molecular target: BcCCA1 (Brassica campestris (syn. Brassica …, UniProt F5B4H3 1-554)); experiment: as above; details: protein: recombinant; tags: His (pCold-His); label: biotin (5' and 3' ends per Methods); blunt
Chain of BcCCA1 (Brassica campestris (F5B4H3 entry or part of it): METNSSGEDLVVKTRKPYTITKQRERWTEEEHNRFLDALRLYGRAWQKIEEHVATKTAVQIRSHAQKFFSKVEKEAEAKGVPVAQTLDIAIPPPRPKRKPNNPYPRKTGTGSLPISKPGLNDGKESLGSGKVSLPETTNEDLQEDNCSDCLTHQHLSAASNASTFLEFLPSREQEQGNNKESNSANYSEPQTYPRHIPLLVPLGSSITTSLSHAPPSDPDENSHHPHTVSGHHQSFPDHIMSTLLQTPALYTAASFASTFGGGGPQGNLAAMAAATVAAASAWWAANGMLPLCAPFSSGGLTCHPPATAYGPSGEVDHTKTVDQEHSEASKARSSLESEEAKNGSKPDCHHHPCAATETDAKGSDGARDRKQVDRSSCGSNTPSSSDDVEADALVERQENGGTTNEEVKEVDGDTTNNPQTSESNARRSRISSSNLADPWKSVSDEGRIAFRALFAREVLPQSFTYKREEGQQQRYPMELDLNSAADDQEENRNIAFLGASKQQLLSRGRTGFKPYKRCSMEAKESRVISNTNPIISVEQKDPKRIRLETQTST

Chain of BcFLC (Brassica campestris (A4L9R7 entry or part of it): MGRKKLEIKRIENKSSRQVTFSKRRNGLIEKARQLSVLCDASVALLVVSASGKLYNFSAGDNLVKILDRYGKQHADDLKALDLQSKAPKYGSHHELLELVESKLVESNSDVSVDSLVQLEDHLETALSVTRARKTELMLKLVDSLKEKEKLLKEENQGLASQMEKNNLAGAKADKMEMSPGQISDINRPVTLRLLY

B1: GATA probe (BcSOC1 promoter) (dsDNA)
DNA 1: GTAAAGGATGAGGTTTCAAG
DNA 2: CTTGAAACCTCATCCTTTAC
Q: Does B1 bind [1]?
A: binds

B2: MBS probe (BcSOC1 promoter) (dsDNA)
DNA 1: TCCCCGTCAACGTATGTTGA
DNA 2: TCAACATACGTTGACGGGGA
Q: Does B2 bind [2]?
A: binds
